Drawing on publication PMC2234252 (The Journal of Cell Biology, 2008), this text covers β-galactosidase assay for eleven molecules.

The target of this assay is T1, hZwint-1 (human, UniProt O95229 1-277).
T1 sequence (looked up): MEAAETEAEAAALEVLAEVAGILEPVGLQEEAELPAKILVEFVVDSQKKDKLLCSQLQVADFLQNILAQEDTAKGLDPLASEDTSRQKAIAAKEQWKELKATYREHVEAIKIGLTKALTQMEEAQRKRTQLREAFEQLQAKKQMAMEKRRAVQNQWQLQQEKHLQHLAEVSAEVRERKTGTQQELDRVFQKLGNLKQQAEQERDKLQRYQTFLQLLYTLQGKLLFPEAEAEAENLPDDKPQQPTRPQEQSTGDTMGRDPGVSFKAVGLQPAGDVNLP
In words: two-hybrid.

B1: hZW10 C2 (aa 1–698) (domain or fragment, human, UniProt O43264 1-698, looked up)
chain: MASFVTEVLAHSGRLEKEDLGTRISRLTRRVEEIKGEVCNMISKKYSEFLPSMQSAQGLITQVDKLSEDIDLLKSRIESEVRRDLHVSTGEFTDLKQQLERDSVVLSLLKQLQEFSTAIEEYNCALTEKKYVTGAQRLEEAQKCLKLLKSRKCFDLKILKSLSMELTIQKQNILYHLGEEWQKLIVWKFPPSKDTSSLESYLQTELHLYTEQSHKEEKTPMPPISSVLLAFSVLGELHSKLKSFGQMLLKYILRPLASCPSLHAVIESQPNIVIIRFESIMTNLEYPSPSEVFTKIRLVLEVLQKQLLDLPLDTDLENEKTSTVPLAEMLGDMIWEDLSECLIKNCLVYSIPTNSSKLQQYEEIIQSTEEFENALKEMRFLKGDTTDLLKYARNINSHFANKKCQDVIVAARNLMTSEIHNTVKIIPDSKINVPELPTPDEDNKLEVQKVSNTQYHEVMNLEPENTLDQHSFSLPTCRISESVKKLMELAYQTLLEATTSSDQCAVQLFYSVRNIFHLFHDVVPTYHKENLQKLPQLAAIHHNNCMYIAHHLLTLGHQFRLRLAPILCDGTATFVDLVPGFRRLGTECFLAQMRAQKGELLERLSSARNFSNMDDEENYSAASKAVRQVLHQLKRLGIVWQDVLPVNIYCKAMGTLLNTAISEVIGKITALEDISTEDGDRLYSLCKTVMDEGPQVFA
B1 gave a β-galactosidase assay of 2.6.

B2: hZW10 C1 (aa 1–772) (domain or fragment, human, UniProt O43264 1-772, looked up)
chain: MASFVTEVLAHSGRLEKEDLGTRISRLTRRVEEIKGEVCNMISKKYSEFLPSMQSAQGLITQVDKLSEDIDLLKSRIESEVRRDLHVSTGEFTDLKQQLERDSVVLSLLKQLQEFSTAIEEYNCALTEKKYVTGAQRLEEAQKCLKLLKSRKCFDLKILKSLSMELTIQKQNILYHLGEEWQKLIVWKFPPSKDTSSLESYLQTELHLYTEQSHKEEKTPMPPISSVLLAFSVLGELHSKLKSFGQMLLKYILRPLASCPSLHAVIESQPNIVIIRFESIMTNLEYPSPSEVFTKIRLVLEVLQKQLLDLPLDTDLENEKTSTVPLAEMLGDMIWEDLSECLIKNCLVYSIPTNSSKLQQYEEIIQSTEEFENALKEMRFLKGDTTDLLKYARNINSHFANKKCQDVIVAARNLMTSEIHNTVKIIPDSKINVPELPTPDEDNKLEVQKVSNTQYHEVMNLEPENTLDQHSFSLPTCRISESVKKLMELAYQTLLEATTSSDQCAVQLFYSVRNIFHLFHDVVPTYHKENLQKLPQLAAIHHNNCMYIAHHLLTLGHQFRLRLAPILCDGTATFVDLVPGFRRLGTECFLAQMRAQKGELLERLSSARNFSNMDDEENYSAASKAVRQVLHQLKRLGIVWQDVLPVNIYCKAMGTLLNTAISEVIGKITALEDISTEDGDRLYSLCKTVMDEGPQVFAPLSEESKNKKYQEEVPVYVPKWMPFKELMMMLQASLQEIGDRWADGKGPLAAAFSSSEVKALIRALFQNTERRA
As to B2, the β-galactosidase assay turned out to be 3.4.

B3: hZW10 N1 (aa 52–779) (domain or fragment, human, UniProt O43264 52-779, looked up)
chain: SMQSAQGLITQVDKLSEDIDLLKSRIESEVRRDLHVSTGEFTDLKQQLERDSVVLSLLKQLQEFSTAIEEYNCALTEKKYVTGAQRLEEAQKCLKLLKSRKCFDLKILKSLSMELTIQKQNILYHLGEEWQKLIVWKFPPSKDTSSLESYLQTELHLYTEQSHKEEKTPMPPISSVLLAFSVLGELHSKLKSFGQMLLKYILRPLASCPSLHAVIESQPNIVIIRFESIMTNLEYPSPSEVFTKIRLVLEVLQKQLLDLPLDTDLENEKTSTVPLAEMLGDMIWEDLSECLIKNCLVYSIPTNSSKLQQYEEIIQSTEEFENALKEMRFLKGDTTDLLKYARNINSHFANKKCQDVIVAARNLMTSEIHNTVKIIPDSKINVPELPTPDEDNKLEVQKVSNTQYHEVMNLEPENTLDQHSFSLPTCRISESVKKLMELAYQTLLEATTSSDQCAVQLFYSVRNIFHLFHDVVPTYHKENLQKLPQLAAIHHNNCMYIAHHLLTLGHQFRLRLAPILCDGTATFVDLVPGFRRLGTECFLAQMRAQKGELLERLSSARNFSNMDDEENYSAASKAVRQVLHQLKRLGIVWQDVLPVNIYCKAMGTLLNTAISEVIGKITALEDISTEDGDRLYSLCKTVMDEGPQVFAPLSEESKNKKYQEEVPVYVPKWMPFKELMMMLQASLQEIGDRWADGKGPLAAAFSSSEVKALIRALFQNTERRAAALAKIK
For B3, the β-galactosidase assay stood at 2.14.

B4: hZW10 C3 (aa 1–560) (domain or fragment, human, UniProt O43264 1-560, looked up)
chain: MASFVTEVLAHSGRLEKEDLGTRISRLTRRVEEIKGEVCNMISKKYSEFLPSMQSAQGLITQVDKLSEDIDLLKSRIESEVRRDLHVSTGEFTDLKQQLERDSVVLSLLKQLQEFSTAIEEYNCALTEKKYVTGAQRLEEAQKCLKLLKSRKCFDLKILKSLSMELTIQKQNILYHLGEEWQKLIVWKFPPSKDTSSLESYLQTELHLYTEQSHKEEKTPMPPISSVLLAFSVLGELHSKLKSFGQMLLKYILRPLASCPSLHAVIESQPNIVIIRFESIMTNLEYPSPSEVFTKIRLVLEVLQKQLLDLPLDTDLENEKTSTVPLAEMLGDMIWEDLSECLIKNCLVYSIPTNSSKLQQYEEIIQSTEEFENALKEMRFLKGDTTDLLKYARNINSHFANKKCQDVIVAARNLMTSEIHNTVKIIPDSKINVPELPTPDEDNKLEVQKVSNTQYHEVMNLEPENTLDQHSFSLPTCRISESVKKLMELAYQTLLEATTSSDQCAVQLFYSVRNIFHLFHDVVPTYHKENLQKLPQLAAIHHNNCMYIAHHLLTLGHQFR
Take B4: the β-galactosidase assay came out at 2.5.

B5: hZW10 C5 (aa 1–410) (domain or fragment, human, UniProt O43264 1-410, looked up)
chain: MASFVTEVLAHSGRLEKEDLGTRISRLTRRVEEIKGEVCNMISKKYSEFLPSMQSAQGLITQVDKLSEDIDLLKSRIESEVRRDLHVSTGEFTDLKQQLERDSVVLSLLKQLQEFSTAIEEYNCALTEKKYVTGAQRLEEAQKCLKLLKSRKCFDLKILKSLSMELTIQKQNILYHLGEEWQKLIVWKFPPSKDTSSLESYLQTELHLYTEQSHKEEKTPMPPISSVLLAFSVLGELHSKLKSFGQMLLKYILRPLASCPSLHAVIESQPNIVIIRFESIMTNLEYPSPSEVFTKIRLVLEVLQKQLLDLPLDTDLENEKTSTVPLAEMLGDMIWEDLSECLIKNCLVYSIPTNSSKLQQYEEIIQSTEEFENALKEMRFLKGDTTDLLKYARNINSHFANKKCQDVIVA
B5 came in with a β-galactosidase assay of 26.6.

B6: hZW10 C4 (aa 1–496) (domain or fragment, human, UniProt O43264 1-496, looked up)
chain: MASFVTEVLAHSGRLEKEDLGTRISRLTRRVEEIKGEVCNMISKKYSEFLPSMQSAQGLITQVDKLSEDIDLLKSRIESEVRRDLHVSTGEFTDLKQQLERDSVVLSLLKQLQEFSTAIEEYNCALTEKKYVTGAQRLEEAQKCLKLLKSRKCFDLKILKSLSMELTIQKQNILYHLGEEWQKLIVWKFPPSKDTSSLESYLQTELHLYTEQSHKEEKTPMPPISSVLLAFSVLGELHSKLKSFGQMLLKYILRPLASCPSLHAVIESQPNIVIIRFESIMTNLEYPSPSEVFTKIRLVLEVLQKQLLDLPLDTDLENEKTSTVPLAEMLGDMIWEDLSECLIKNCLVYSIPTNSSKLQQYEEIIQSTEEFENALKEMRFLKGDTTDLLKYARNINSHFANKKCQDVIVAARNLMTSEIHNTVKIIPDSKINVPELPTPDEDNKLEVQKVSNTQYHEVMNLEPENTLDQHSFSLPTCRISESVKKLMELAYQTLLE
Molecule B6 gave a β-galactosidase assay of 1.

B7: hZW10 C8 (aa 1–224) (domain or fragment, human, UniProt O43264 1-224, looked up)
chain: MASFVTEVLAHSGRLEKEDLGTRISRLTRRVEEIKGEVCNMISKKYSEFLPSMQSAQGLITQVDKLSEDIDLLKSRIESEVRRDLHVSTGEFTDLKQQLERDSVVLSLLKQLQEFSTAIEEYNCALTEKKYVTGAQRLEEAQKCLKLLKSRKCFDLKILKSLSMELTIQKQNILYHLGEEWQKLIVWKFPPSKDTSSLESYLQTELHLYTEQSHKEEKTPMPPI
As for B7, the β-galactosidase assay stood at 233.

B8: hZW10 C6 (aa 1–356) (domain or fragment, human, UniProt O43264 1-356, looked up)
chain: MASFVTEVLAHSGRLEKEDLGTRISRLTRRVEEIKGEVCNMISKKYSEFLPSMQSAQGLITQVDKLSEDIDLLKSRIESEVRRDLHVSTGEFTDLKQQLERDSVVLSLLKQLQEFSTAIEEYNCALTEKKYVTGAQRLEEAQKCLKLLKSRKCFDLKILKSLSMELTIQKQNILYHLGEEWQKLIVWKFPPSKDTSSLESYLQTELHLYTEQSHKEEKTPMPPISSVLLAFSVLGELHSKLKSFGQMLLKYILRPLASCPSLHAVIESQPNIVIIRFESIMTNLEYPSPSEVFTKIRLVLEVLQKQLLDLPLDTDLENEKTSTVPLAEMLGDMIWEDLSECLIKNCLVYSIPTNSS
As for B8, the β-galactosidase assay came out at 275.

B9: hZW10 C9 (aa 1–139) (domain or fragment, human, UniProt O43264 1-139, looked up)
chain: MASFVTEVLAHSGRLEKEDLGTRISRLTRRVEEIKGEVCNMISKKYSEFLPSMQSAQGLITQVDKLSEDIDLLKSRIESEVRRDLHVSTGEFTDLKQQLERDSVVLSLLKQLQEFSTAIEEYNCALTEKKYVTGAQRLE
On to B9, for which the β-galactosidase assay amounted to 445.

B10: hZW10 full length (aa 1–779) (natural protein, human, UniProt O43264 1-779, looked up)
chain: MASFVTEVLAHSGRLEKEDLGTRISRLTRRVEEIKGEVCNMISKKYSEFLPSMQSAQGLITQVDKLSEDIDLLKSRIESEVRRDLHVSTGEFTDLKQQLERDSVVLSLLKQLQEFSTAIEEYNCALTEKKYVTGAQRLEEAQKCLKLLKSRKCFDLKILKSLSMELTIQKQNILYHLGEEWQKLIVWKFPPSKDTSSLESYLQTELHLYTEQSHKEEKTPMPPISSVLLAFSVLGELHSKLKSFGQMLLKYILRPLASCPSLHAVIESQPNIVIIRFESIMTNLEYPSPSEVFTKIRLVLEVLQKQLLDLPLDTDLENEKTSTVPLAEMLGDMIWEDLSECLIKNCLVYSIPTNSSKLQQYEEIIQSTEEFENALKEMRFLKGDTTDLLKYARNINSHFANKKCQDVIVAARNLMTSEIHNTVKIIPDSKINVPELPTPDEDNKLEVQKVSNTQYHEVMNLEPENTLDQHSFSLPTCRISESVKKLMELAYQTLLEATTSSDQCAVQLFYSVRNIFHLFHDVVPTYHKENLQKLPQLAAIHHNNCMYIAHHLLTLGHQFRLRLAPILCDGTATFVDLVPGFRRLGTECFLAQMRAQKGELLERLSSARNFSNMDDEENYSAASKAVRQVLHQLKRLGIVWQDVLPVNIYCKAMGTLLNTAISEVIGKITALEDISTEDGDRLYSLCKTVMDEGPQVFAPLSEESKNKKYQEEVPVYVPKWMPFKELMMMLQASLQEIGDRWADGKGPLAAAFSSSEVKALIRALFQNTERRAAALAKIK
As for B10, the β-galactosidase assay is 187.

B11: hZW10 C7 (aa 1–318) (domain or fragment, human, UniProt O43264 1-318, looked up)
chain: MASFVTEVLAHSGRLEKEDLGTRISRLTRRVEEIKGEVCNMISKKYSEFLPSMQSAQGLITQVDKLSEDIDLLKSRIESEVRRDLHVSTGEFTDLKQQLERDSVVLSLLKQLQEFSTAIEEYNCALTEKKYVTGAQRLEEAQKCLKLLKSRKCFDLKILKSLSMELTIQKQNILYHLGEEWQKLIVWKFPPSKDTSSLESYLQTELHLYTEQSHKEEKTPMPPISSVLLAFSVLGELHSKLKSFGQMLLKYILRPLASCPSLHAVIESQPNIVIIRFESIMTNLEYPSPSEVFTKIRLVLEVLQKQLLDLPLDTDLEN
Molecule B11 showed a β-galactosidase assay of 132.
